Like-named read-outs stand apart in the source and are kept apart here. No end group written: not given here. *: point of attachment. Biotin = O=C1N[C@H]2[C@H](CS[C@H]2CCCCC(=O)*)N1
Assays:
HA-dmRanGAP [1] = molecular target: T1, HA-dmRanGAP (Drosophila melanogaster, UniProt Q9VIW3 1-596); test: pull-down
T1 sequence (looked up): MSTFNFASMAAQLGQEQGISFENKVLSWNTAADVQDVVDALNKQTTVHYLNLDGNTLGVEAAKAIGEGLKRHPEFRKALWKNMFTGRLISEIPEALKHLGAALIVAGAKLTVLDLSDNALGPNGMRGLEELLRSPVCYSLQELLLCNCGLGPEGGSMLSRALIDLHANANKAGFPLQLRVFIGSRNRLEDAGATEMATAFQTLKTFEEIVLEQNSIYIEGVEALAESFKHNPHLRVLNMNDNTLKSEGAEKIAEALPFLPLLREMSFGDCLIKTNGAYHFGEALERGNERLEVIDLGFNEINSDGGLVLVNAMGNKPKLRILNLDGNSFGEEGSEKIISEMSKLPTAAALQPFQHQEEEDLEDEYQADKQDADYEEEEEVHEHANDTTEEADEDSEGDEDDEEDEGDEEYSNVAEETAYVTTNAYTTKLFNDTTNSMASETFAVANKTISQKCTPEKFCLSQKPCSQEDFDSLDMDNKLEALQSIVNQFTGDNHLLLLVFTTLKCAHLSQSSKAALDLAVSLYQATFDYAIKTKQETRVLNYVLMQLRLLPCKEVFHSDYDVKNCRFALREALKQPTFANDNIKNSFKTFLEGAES

HA-dmRanGAP [2] = molecular target: T1, HA-dmRanGAP; test: pull-down; remark: listed apart in the source

B1: Biotinylated BP2 peptide (aa 2197-2219 of dmRanBP2) (peptide)
peptide: Biotin-VRPTTHEVIPPLPMTLPLLTLPQ
HA-dmRanGAP [1]
  binding result: binds

B2: dmRanBP2B-Frag (aa 2151-2250 of dmRanBP2B isoform) (domain or fragment, Drosophila melanogaster, UniProt A0A0B4K7J2 2151-2250, looked up)
chain: KPIEDSPVVGSVSQSTEANKPSQKNDGAAKSRGGESEVLDVGKTSSVRPTTHEVIPPLPMTLPLLTLPQPLAKPNDYQTPATILFKGSSLSRNNSSASEA
HA-dmRanGAP [2]
  binding result: binds

From publication PMC11166264 (Cell reports, 2021)
